Source: patent US20150165065A1 (AVIDBIOTICS, published 2015)
Substitutions are numbered along the chain they refer to. Numbers in names are those of the source. Read-outs that look alike come from different tables or passages of the source.

Key:
human NKG2D-Fc = target: T1, human NKG2D-Fc (human, UniProt P26718 78-216, limits assumed); assay: competition ELISA, 2 nM human NKG2D-Fc on coated WT sMICA
T1 construct: construct not described; also called human NKG2D-Fc reagent; not shown: Fc part
T1 sequence (looked up): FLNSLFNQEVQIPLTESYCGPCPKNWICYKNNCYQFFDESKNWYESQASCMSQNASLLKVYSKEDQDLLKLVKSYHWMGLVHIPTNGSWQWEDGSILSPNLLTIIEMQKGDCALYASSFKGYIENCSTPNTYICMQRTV
From the text: As for the NKG2D ligands (NKG2DLs) in the above example, we attached polypeptides directly to each of these 4 modified α1-α2 NKG2DLs using a linker peptide. The 4 His-tagged proteins (SEQ ID NOs.: 131-134) were expressed in insect cells and purified to characterize their NKG2D binding affinities and kinetic binding parameters. Using a competitive binding ELISA, we determined the relative NKG2D binding affinities of the 4 modified α1-α2 variants.

biotinylated human NKG2D [1] = target: T2, biotinylated human NKG2D (human, UniProt P26718 78-216, limits assumed, biotinylated (site not stated)); assay: BLI (Octet), coated biotinylated human NKG2D, 100 nM analyte
T2 construct: Surface-coated in biolayer interferometry (Octet); also called recombinant biotinylated NKG2D
T2 sequence (looked up): T1 sequence (looked up)

biotinylated human NKG2D [2] = target: T2, biotinylated human NKG2D; assay: BLI (Octet), Kd = kOFF/kON
integrin αVβ3 [3] = target: T3, integrin αVβ3 (UniProt P06756 31-992; P05106 27-718); assay: ELISA, coated integrin, anti-MICA-HRP
T3 construct: Coated on the ELISA plate
T3 sequence (P06756 31-992, chain 1 of 2): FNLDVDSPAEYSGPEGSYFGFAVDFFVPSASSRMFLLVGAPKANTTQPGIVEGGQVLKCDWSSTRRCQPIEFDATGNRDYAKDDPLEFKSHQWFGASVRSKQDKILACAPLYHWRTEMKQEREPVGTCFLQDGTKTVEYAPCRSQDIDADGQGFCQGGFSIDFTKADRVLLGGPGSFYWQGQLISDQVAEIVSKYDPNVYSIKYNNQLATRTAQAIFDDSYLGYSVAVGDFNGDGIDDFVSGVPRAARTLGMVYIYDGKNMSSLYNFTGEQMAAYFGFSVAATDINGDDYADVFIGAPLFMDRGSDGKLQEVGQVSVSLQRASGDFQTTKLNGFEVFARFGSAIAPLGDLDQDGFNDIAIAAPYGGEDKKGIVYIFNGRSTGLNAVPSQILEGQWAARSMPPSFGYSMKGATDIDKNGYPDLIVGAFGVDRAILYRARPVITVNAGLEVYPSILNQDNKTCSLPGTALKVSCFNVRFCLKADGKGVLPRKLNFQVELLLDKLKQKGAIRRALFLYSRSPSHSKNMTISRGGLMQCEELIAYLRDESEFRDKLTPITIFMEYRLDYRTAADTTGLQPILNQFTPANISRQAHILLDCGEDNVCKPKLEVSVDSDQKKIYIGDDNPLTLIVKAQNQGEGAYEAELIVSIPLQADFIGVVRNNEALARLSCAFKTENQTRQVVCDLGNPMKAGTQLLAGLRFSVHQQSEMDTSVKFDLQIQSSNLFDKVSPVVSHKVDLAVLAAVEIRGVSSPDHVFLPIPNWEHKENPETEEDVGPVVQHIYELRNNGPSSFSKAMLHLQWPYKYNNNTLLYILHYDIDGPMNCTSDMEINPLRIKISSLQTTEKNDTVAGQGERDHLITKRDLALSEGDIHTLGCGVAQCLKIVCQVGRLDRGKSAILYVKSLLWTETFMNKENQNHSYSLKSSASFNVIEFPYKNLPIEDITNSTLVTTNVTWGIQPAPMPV
T3 sequence (P05106 27-718, chain 2 of 2): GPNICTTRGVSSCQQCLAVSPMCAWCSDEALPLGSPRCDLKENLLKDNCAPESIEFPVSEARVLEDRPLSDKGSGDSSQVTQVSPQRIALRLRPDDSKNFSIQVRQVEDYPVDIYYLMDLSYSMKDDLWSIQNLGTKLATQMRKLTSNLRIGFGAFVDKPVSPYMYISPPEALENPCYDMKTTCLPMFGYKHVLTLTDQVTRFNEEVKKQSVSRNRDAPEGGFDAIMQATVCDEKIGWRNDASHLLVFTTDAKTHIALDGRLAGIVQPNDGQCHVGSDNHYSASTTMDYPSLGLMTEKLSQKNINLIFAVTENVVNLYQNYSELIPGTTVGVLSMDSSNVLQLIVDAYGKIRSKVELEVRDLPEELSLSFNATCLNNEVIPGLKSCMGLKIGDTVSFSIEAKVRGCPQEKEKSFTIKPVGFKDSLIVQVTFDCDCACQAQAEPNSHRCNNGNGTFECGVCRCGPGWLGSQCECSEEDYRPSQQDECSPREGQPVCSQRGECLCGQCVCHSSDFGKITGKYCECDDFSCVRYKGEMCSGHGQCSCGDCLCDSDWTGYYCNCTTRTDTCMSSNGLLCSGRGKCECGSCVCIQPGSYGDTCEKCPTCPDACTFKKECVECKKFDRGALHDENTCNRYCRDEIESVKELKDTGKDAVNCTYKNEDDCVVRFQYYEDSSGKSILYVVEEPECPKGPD
Procedure: (§1) The ability of the soluble MICA molecules in each of the concentrated supernatants to bind target molecules was assayed by an ELISA using the intended target proteins, integrin αVβ3 or αVβ5, as capture agents on the ELISA plate. After the respective integrins were adhered to the bottoms of the wells of the ELISA plate, the wells were washed and blocked, as well known in the field. Each sample (100 μl) of soluble MICA produced and secreted by 293T cells was added to wells containing αVβ3 or αVβ5, incubated and washed. The soluble MICA molecules captured by the integrins were detected by HRP-conjugated antibody to human MICA developed with Ultra TMB-ELISA substrate and the optical densities read. The quantity of soluble MICA in each sample was determined by the MICA-specific ELISA. […] The ELISA signal from a non-binding, negative control MICA (generated by pSW273) was subtracted from each integrin binding signal.

integrin αVβ5 [4] = target: T4, integrin αVβ5 (UniProt P06756 31-992; P18084 24-719); assay: ELISA, coated integrin, anti-MICA-HRP
T4 construct: Coated on the ELISA plate
T4 sequence (P06756 31-992, chain 1 of 2): as the sequence (P06756 31-992, chain 1 of 2) above
T4 sequence (P18084 24-719, chain 2 of 2): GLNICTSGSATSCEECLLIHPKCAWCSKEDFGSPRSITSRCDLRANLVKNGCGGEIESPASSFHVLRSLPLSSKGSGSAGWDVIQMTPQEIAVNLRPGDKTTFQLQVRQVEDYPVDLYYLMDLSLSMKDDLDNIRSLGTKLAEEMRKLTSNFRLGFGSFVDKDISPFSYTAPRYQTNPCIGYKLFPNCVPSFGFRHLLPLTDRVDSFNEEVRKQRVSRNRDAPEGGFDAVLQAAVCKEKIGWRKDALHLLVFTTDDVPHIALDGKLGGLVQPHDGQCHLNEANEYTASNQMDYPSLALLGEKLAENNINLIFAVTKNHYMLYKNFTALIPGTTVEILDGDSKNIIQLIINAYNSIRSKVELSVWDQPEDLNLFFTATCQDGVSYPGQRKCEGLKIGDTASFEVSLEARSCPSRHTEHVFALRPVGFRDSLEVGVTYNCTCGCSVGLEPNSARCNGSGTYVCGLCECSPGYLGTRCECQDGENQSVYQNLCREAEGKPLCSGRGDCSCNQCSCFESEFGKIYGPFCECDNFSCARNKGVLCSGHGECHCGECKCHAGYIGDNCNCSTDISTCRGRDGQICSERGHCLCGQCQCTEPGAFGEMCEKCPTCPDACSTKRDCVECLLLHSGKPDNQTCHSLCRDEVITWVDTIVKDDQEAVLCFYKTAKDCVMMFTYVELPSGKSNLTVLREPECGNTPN
Procedure: as §1

integrin αVβ3 [5] = target: T3, integrin αVβ3; assay: ELISA, coated integrin, anti-MICA-HRP; remark: listed apart in the source
Procedure: (§2) ELISA assays of the integrin target-binding of soluble MICA molecules generated from pKK128-131 were performed as follows. After the respective integrins were adhered to the bottoms of the wells of the ELISA plate, the wells were washed and blocked. Each sample (100 μl) of culture supernatant was added to wells containing αVβ3 or αVβ5, incubated and washed. The soluble MICA molecules captured by the integrins were detected by HRP-conjugated antibody to human MICA developed with Ultra TMB-ELISA substrate and the optical densities read. The quantity of soluble MICA in each sample was determined by the MICA-specific ELISA.

integrin αVβ5 [6] = target: T4, integrin αVβ5; assay: ELISA, coated integrin, anti-MICA-HRP; remark: listed apart in the source
Procedure: as §2

integrin αVβ3 [7] = target: T3, integrin αVβ3; assay: phage ELISA, coated integrin, anti-M13-HRP
Procedure: (§3) The ELISA assays of the integrin target-binding of M13 phages displaying α3 domains with binding peptide inserts grafted into more than one loop were performed as follows. After the respective integrins were adhered to the bottoms of the wells of the ELISA plate, the wells were washed and blocked. Each sample (100 μl) of phage preparation was added to wells containing αVβ3 or αVβ5, incubated and washed. The phages captured by the integrins were detected by HRP-conjugated antibody to the M13 phage coat developed with Ultra TMB-ELISA substrate and the optical densities read.

integrin αVβ5 [8] = target: T4, integrin αVβ5; assay: phage ELISA, coated integrin, anti-M13-HRP
Procedure: as §3

integrin αVβ3 [9] = target: T3, integrin αVβ3; assay: phage ELISA, coated integrin, anti-M13-HRP; remark: listed apart in the source
Procedure: (§4) The phage vectors were independently transformed into NEBαF′tet competent E. coli cells. Phages produced by the transformed cells were tittered and their concentrations adjusted by dilution to 10¹³ per ml. The ability of the soluble MICA molecules in each of the phage preparations was assayed by an ELISA using the intended target proteins, integrin αVβ3 or αVβ5, as capture agents on the ELISA plate. After the respective integrins were adhered to the bottoms of the wells of the ELISA plate, the wells were washed and blocked, as well known in the field. Each sample (100 μl) of phage preparation was added to wells containing αVβ3 or αVβ5, incubated and washed. The phages captured by the integrins were detected by HRP-conjugated antibody to the M13 phage coat developed with Ultra TMB-ELISA substrate and the optical densities read.

integrin αVβ5 [10] = target: T4, integrin αVβ5; assay: phage ELISA, coated integrin, anti-M13-HRP; remark: listed apart in the source
Procedure: as §4

B1: WT α1-α2 domain soluble MICA protein (competitor and analyte) (ligand)
chain: EPHSLRYNLTVLSWDGSVQSGFLTEVHLDGQPFLRCDRQKCRAKPQGQWAEDVLGNKTWDRETRDLTGNGKDLRMTLAHIKDQKEGLHSLQEIRVCEIHEDNSTRSSQHFYYDGELFLSQNLETKEWTMPQSSRAQTLAMNVRNFLKEDAMKTKTHYHAMHADCLQELRRYLKSGVVLRRTVPPMVQVTRSEASGGSGDRVTITCRASQDVSTAVAWYQQKPGKAPKLLIYSASFLYSGVPSRFSGSGSGTDFTLTISSLQPEDFATYYCQQSYTTPPTFGQGTKVEIKGGSSRSSSSGGGGSGGGGEVQLVESGGGLVQPGGSLRLSCAASGFTFTSTGISWVRQAPGKGLEWVGRIYPTNGSTNYADSVKGRFTISADTSKNTAYLQMNSLRAEDTAVYYCARTYGIYDLYVDYTEYVMDYWGQGTLVTVSSGGSSRSSSSGGGGSGGGGDIQMTQSPSSLSASGGSGQITVTCRASGFYPWNITLSWRQDGVSLSHDTQQWGDVLPDGQGTYQTWVATRISQGEEQRFTCYMEHSGQHSTHPVPSGKGSHHHHHH
notes: also called wild-type (WT); WT MICA
Human NKG2D-Fc
  IC50: 19.4 nM
Biotinylated human NKG2D [1]
  koff: 0.0018 s⁻¹
  kon: 130000 M⁻¹ s⁻¹
Biotinylated human NKG2D [2]
  Kd: 13.8 nM

B2: WED-MICA (WED-α1-α2 domain; N69W, K152E, K154D) (designed binder)
chain: B1 chain with N69W, K152E, K154D
notes: Whole entry as named
Human NKG2D-Fc
  IC50: 4.4 nM
Biotinylated human NKG2D [1]
  apparent koff (pooled screen): 0.0017 s⁻¹
  apparent kon (pooled screen): 290000 M⁻¹ s⁻¹
Biotinylated human NKG2D [2]
  apparent Kd (pooled screen): 5.9 nM

B3: soluble MICA generated from pKK46 (loop 1 insert extended 5.1sp) (designed binder)
chain: HHHHHHEPHSLRYNLTVLSWDGSVQSGFLTEVHLDGQPFLRCDRQKCRAKPQGQWAEDVLGNKTWDRETRDLTGNGKDLRMTLAHIKDQKEGLHSLQEIRVCEIHEDNSTRSSQHFYYDGELFLSQNLETEEWTMPQSSRAQTLAMNVRNFLKEDAMKTKTHYHAMHADCLQELRRYLKSGVVLRRTVPPMVNVTSGGSGGGSVTRGDTFTQSSGGSGGGVTCRASGFYPWNITLSWRQDGVSLSHDTQQWGDVLPDGNGTYQTWVATRICQGEEQRFTCYMEHSGNHSTHPVPSGK
notes: From pKK34 (His6, Glu125); secreted by 293T cells; also called 1-5.1sp
Integrin αVβ3 [3]
  αvβ3 signal: 0.384 OD
  αvβ3 signal/ng: 9.2 signal/ng MICA
Integrin αVβ5 [4]
  αvβ5 signal: 1.06 OD
  αvβ5 signal/ng: 25.5 signal/ng MICA
Integrin αVβ3 [5]
  αvβ3 signal: 0.467 OD
  αvβ3 signal/ng: 9.42 signal/ng MICA
Integrin αVβ5 [6]
  αvβ5 signal: 0.66 OD
  αvβ5 signal/ng: 13.3 signal/ng MICA

B4: M13 phage pKK106 displaying wild type MICA α3 domain fused to pIII (other)
chain: TVPPMVNVTRSEASEGNITVTCRASGFYPWNITLSWRQDGVSLSHDTQQWGDVLPDGNGTYQTWVATRICQGEEQRFTCYMEHSGNHSTHPVPSGK
notes: also called WT; not shown: C-terminal portion of M13 gene III protein, fused at codon position 198
Integrin αVβ3 [7]
  αvβ3 signal: 0 OD
Integrin αVβ5 [8]
  αvβ5 signal: 0 OD
Integrin αVβ3 [9]
  αvβ3 signal: 0 OD
Integrin αVβ5 [10]
  αvβ5 signal: 0 OD

B5: M13 phage pKK102 displaying MICA α3 domain with loop 1 insert 5.1sp (designed binder)
chain: TVPPMVNVTSGGSGGGSVTRGDTFTQSSGGSGGGVTCRASGFYPWNITLSWRQDGVSLSHDTQQWGDVLPDGNGTYQTWVATRICQGEEQRFTCYMEHSGNHSTHPVPSGK
notes: also called 1-5.1sp; not shown: C-terminal portion of M13 gene III protein, fused at codon position 198
Integrin αVβ3 [7]
  αvβ3 signal: 1.45 OD
Integrin αVβ5 [8]
  αvβ5 signal: 1.5 OD
Integrin αVβ3 [9]
  αvβ3 signal: 1.02 OD
Integrin αVβ5 [10]
  αvβ5 signal: 0.771 OD

B6: M13 phage pKK103 displaying MICA α3 domain with loop 1 insert 5.3sp (designed binder)
chain: B5 chain with V18H, T19L, R20A, G21R, D22G, T23D, F24D, T25L, Q26T, S27Y
notes: also called 1-5.3sp; not shown: C-terminal portion of M13 gene III protein, fused at codon position 198
Integrin αVβ3 [7]
  αvβ3 signal: 0.587 OD
Integrin αVβ5 [8]
  αvβ5 signal: 0.814 OD
Integrin αVβ3 [9]
  αvβ3 signal: 0.688 OD
Integrin αVβ5 [10]
  αvβ5 signal: 0.491 OD

B7: soluble MICA generated from pKK128 (loop 1 extended 5.1sp, loop 3 extended 3.2sp) (designed binder)
chain: HHHHHHEPHSLRYNLTVLSWDGSVQSGFLTEVHLDGQPFLRCDRQKCRAKPQGQWAEDVLGNKTWDRETRDLTGNGKDLRMTLAHIKDQKEGLHSLQEIRVCEIHEDNSTRSSQHFYYDGELFLSQNLETEEWTMPQSSRAQTLAMNVRNFLKEDAMKTKTHYHAMHADCLQELRRYLKSGVVLRRTVPPMVNVTSGGSGGGSVTRGDTFTQSSGGSGGGVTCRASGFYPWNITLSWRQDGVSLSHDTQQWGDVLPDGNGTYQTWVATRISGGSGGGSTSRGDHPRTQSGGSGGGCYMEHSGNHSTHPVPSGK
notes: From pKK115 (from pKK46: His6, Glu125); secreted by 293T cells; also called 1-5.1sp/3-3.2sp
Integrin αVβ3 [5]
  αvβ3 signal: 0.811 OD
  αvβ3 signal/ng: 22.9 signal/ng MICA
Integrin αVβ5 [6]
  αvβ5 signal: 1 OD
  αvβ5 signal/ng: 28.3 signal/ng MICA
